US20120207760A1

Experiments:
Settings in all cases: remark: other sources report otherwise
[1] = biological target: T1, recombinant homotrimeric HA, A/common magpie/Hong Kong/5052/07 H5N1 (Influenza A virus A/common magpie/Hong Kong/5052/07 (H5N1)); assay: trimeric HA microarray, transfection set 3
[2] = biological target: T2, recombinant homotrimeric HA, A/Vietnam/1203/04 H5N1 (Influenza A virus A/Vietnam/1203/04 (H5N1)); assay: trimeric HA microarray, transfection set 3
[3] = biological target: recombinant homotrimeric HA, A/duck/Yangzhou/02/05 H8N4 (Influenza A virus A/duck/Yangzhou/02/2005 (H8N4)); assay: trimeric HA microarray, transfection set 3
[4] = biological target: T3, recombinant homotrimeric HA, A/Egypt/3300-NAMRU3/08 H5N1 (Influenza A virus A/Egypt/3300-NAMRU3/08 (H5N1)); assay: trimeric HA microarray, transfection set 3
[5] = biological target: T4, recombinant homotrimeric HA, A/Wisconsin/67/05 H3N2 (Influenza A virus A/Wisconsin/67/05 (H3N2)); assay: trimeric HA microarray, transfection set 3
[6] = biological target: T5, recombinant homotrimeric HA, A/swine/Ontario/01911-2/99 H4N6 (Influenza A virus A/swine/Ontario/01911-2/99 (H4N6)); assay: trimeric HA microarray, transfection set 3
[7] = biological target: T6, recombinant homotrimeric HA, A/Japan/305/57 H2N2 (Influenza A virus A/Japan/305/57 (H2N2)); assay: trimeric HA microarray, transfection set 3
[8] = biological target: recombinant soluble homotrimeric HA of A/Japan/305/57 (H2N2) (Influenza A virus A/Japan/305/57 (H2N2)); assay: microarray, BCC supernatant IgG, trimeric HA
[9] = biological target: recombinant soluble homotrimeric HA of A/chicken/Vietnam/NCVD-016/08 (H5N1) (Influenza A virus A/chicken/Vietnam/NCVD-016/08 (H5N1)); assay: microarray, BCC supernatant IgG, trimeric HA
[10] = biological target: recombinant soluble homotrimeric HA of A/California/4/09 (H1N1) (Influenza A virus A/California/4/09 (H1N1)); assay: microarray, BCC supernatant IgG, trimeric HA
[11] = biological target: T7, recombinant homotrimeric HA, A/chicken/Vietnam/NCVD-016/08 H5N1 (Influenza A virus A/chicken/Vietnam/NCVD-016/08 (H5N1)); assay: trimeric HA microarray, transfection set 3
[12] = biological target: recombinant homotrimeric HA, A/Netherlands/219/03 H7N7 (Influenza A virus A/Netherlands/219/03 (H7N7)); assay: trimeric HA microarray, transfection set 3
[13] = biological target: T8, recombinant homotrimeric HA, A/South Carolina/1/18 H1N1 (Influenza A virus A/South Carolina/1/18 (H1N1)); assay: trimeric HA microarray, transfection set 3
[14] = biological target: T9, recombinant homotrimeric HA, A/Hong Kong/1073/99 H9N2 (Influenza A virus A/Hong Kong/1073/99 (H9N2)); assay: trimeric HA microarray, transfection set 3
[15] = biological target: T10, recombinant homotrimeric HA, A/northern shoveler/California/HKWF115/07 (Influenza A virus A/northern shoveler/California/HKWF115/2007 (H6N1)); assay: trimeric HA microarray, transfection set 3
[16] = biological target: T11, recombinant homotrimeric HA, A/Solomon Islands/3/06 H1N1 (Influenza A virus A/Solomon Islands/3/06 (H1N1)); assay: trimeric HA microarray, transfection set 3
[17] = biological target: recombinant soluble homotrimeric HA of A/duck/Yangzhou/02/05 (H8N4) (Influenza A virus A/duck/Yangzhou/02/2005 (H8N4)); assay: microarray, BCC supernatant IgG, trimeric HA
[18] = biological target: recombinant soluble homotrimeric HA of A/Solomon Islands/3/06 (H1N1) (Influenza A virus A/Solomon Islands/3/06 (H1N1)); assay: microarray, BCC supernatant IgG, trimeric HA
[19] = biological target: T7, recombinant homotrimeric HA, …; assay: trimeric HA microarray, transfection set 2
[20] = biological target: T1, recombinant homotrimeric HA, A/common …; assay: trimeric HA microarray, transfection set 2
[21] = biological target: T8, recombinant homotrimeric HA, A/South …; assay: trimeric HA microarray, transfection set 2
[22] = biological target: T9, recombinant homotrimeric HA, A/Hong …; assay: trimeric HA microarray, transfection set 2
[23] = biological target: T10, recombinant homotrimeric HA, A/northern …; assay: trimeric HA microarray, transfection set 2
[24] = biological target: T2, recombinant homotrimeric HA, …; assay: trimeric HA microarray, transfection set 2
[25] = biological target: T3, recombinant homotrimeric HA, …; assay: trimeric HA microarray, transfection set 2
[26] = biological target: T11, recombinant homotrimeric HA, A/Solomon …; assay: trimeric HA microarray, transfection set 2
[27] = biological target: T12, recombinant homotrimeric HA, A/California/4/09 H1N1 (Influenza A virus A/California/4/09 (H1N1)); assay: trimeric HA microarray, transfection set 2
[28] = biological target: T4, recombinant homotrimeric HA, …; assay: trimeric HA microarray, transfection set 2
[29] = biological target: T5, recombinant homotrimeric HA, …; assay: trimeric HA microarray, transfection set 2
[30] = biological target: T6, recombinant homotrimeric HA, …; assay: trimeric HA microarray, transfection set 2
[31] = biological target: recombinant soluble homotrimeric HA of A/Wisconsin/67/05 (H3N2) (Influenza A virus A/Wisconsin/67/05 (H3N2)); assay: microarray, BCC supernatant IgG, trimeric HA
[32] = biological target: recombinant soluble homotrimeric HA of A/northern shoveler/California/HKWF115/07 (Influenza A virus A/northern shoveler/California/HKWF115/2007); assay: microarray, BCC supernatant IgG, trimeric HA
[33] = biological target: T11, recombinant homotrimeric HA, A/Solomon …; assay: trimeric HA microarray, transfection set 5
[34] = biological target: T12, recombinant homotrimeric HA, …; assay: trimeric HA microarray, transfection set 5
[35] = biological target: T4, recombinant homotrimeric HA, …; assay: trimeric HA microarray, transfection set 5
[36] = biological target: T6, recombinant homotrimeric HA, …; assay: trimeric HA microarray, transfection set 5

B1: TCN-531 (5091_H13) (antibody, V domains shown)
VH: EVQLVESGGDLVQPGRSLKLSCTGSGFTFGDYGVTWVRQAPGKGLEWVGFIRTRPWGGTADTAASVKGRFTISRDDSKSLAYLQMNSLKTEDTAVYYCCRDAPPNVEVASMTNWYFDLWGRGTLVTVSS
VL: DIQLTQSPSSLSASVGDRVTITCRASQGILNCLAWYQQKPGKVPNLLMYAASTLQSGVPSRFSGSGFGTDFTLTISSLQPEDVATYYCQTYGGVSTFGGGTKVEIR
Trimeric HA Binding RLU [1]: 37 RLU | Trimeric HA Binding RLU [2]: 2410 RLU | Trimeric HA Binding RLU [3]: 3220 RLU | Trimeric HA Binding RLU [4]: 363 RLU | Trimeric HA Binding RLU [5]: 4160 RLU | Trimeric HA Binding RLU [6]: 296 RLU | Trimeric HA Binding RLU [7]: 489 RLU | Trimeric HA Binding: RLU [8]: 410 RLU | Trimeric HA Binding: RLU [9]: 20800 RLU | Trimeric HA Binding: RLU [10]: 22200 RLU

B2: TCN-532 (5262_H18) (antibody, V domains shown)
VH: QVQLQESGPGLVKPSETLSLTCTVSGGSVSSETYYWSWIRQPPGKGLEWIGYIYYIGNTDYRPSLKSRVTISLDTSKNQFSLKLSSVTAADTAVYYCARGAYYDSSGYPAFYIWGQGTMVTVSS
VL: QSVLTQPPSVSGAPGQRVTISCTGSSSNIGSDYDVHWYKQLPGTAPKLLIFGNSNRPSGVPDRFSGSKSGTSASLAITGLQAEDEADYYCQSYDSSLSGFHVFGSGTKVTVL
Trimeric HA Binding RLU [11]: 29 RLU | Trimeric HA Binding RLU [12]: 42 RLU | Trimeric HA Binding RLU [13]: 311 RLU | Trimeric HA Binding RLU [14]: 48 RLU | Trimeric HA Binding RLU [15]: 78 RLU | Trimeric HA Binding RLU [16]: 59 RLU | Trimeric HA Binding RLU [5]: 9970 RLU | Trimeric HA Binding RLU [6]: 29 RLU | Trimeric HA Binding RLU [7]: 441 RLU

B3: TCN-529 (5297_H01) (antibody, V domains shown)
VH: QITLRESGPTLVKPTQTLTLTCTFSGFSLSTNGVNVGWIRQPPGKALEWLALIYWDDDKRYSPSLKRRLTITKDTSKNQVVLTLTNMDPVDTATYYCAHRPDFYGDFEYWGPGTLVTVSS
VL: QSALTQPASVSGSPGQSITISCTGSSSDIGGYNYVSWYQQHPGKAPKLMIYDVNNRPSGVSNRFSGSKSGNTASLTISGLQTDDEADYYCGSYTGSPHYVFGTGTKVTVL
Trimeric HA Binding RLU [11]: 33 RLU | Trimeric HA Binding RLU [13]: 158 RLU | Trimeric HA Binding RLU [14]: 46 RLU | Trimeric HA Binding RLU [3]: 48 RLU | Trimeric HA Binding RLU [16]: 43 RLU | Trimeric HA Binding RLU [5]: 2940 RLU | Trimeric HA Binding RLU [6]: 45 RLU | Trimeric HA Binding RLU [7]: 45 RLU | Trimeric HA Binding: RLU [17]: 771 RLU | Trimeric HA Binding: RLU [18]: 179 RLU

B4: TCN-522 (3212_I12) (antibody, V domains shown)
VH: QVQLQQWGAGLLKPSETLSLTCTVSGGSLTDYSWNWIRQPPGKGLEWIGDTLHNGYTNYNPSLRGRVSISIDTSKNQVSLRLTSVTAADTALYYCARGSGGYGGFDYFGKLRTWDFWGQGTLVTVSS
VL: DIQLTQSPSSLSASVGDRVTITCRASQGIRNDLGWYQQKPGNAPKRLIFGASSLQSGVPSRFSGSGSGTEFTLTISSLQPEDFATYYCLQHNSYPYTFGQGTKLEIK
Trimeric HA Binding RLU [19]: 49300 RLU | Trimeric HA Binding RLU [20]: 21400 RLU | Trimeric HA Binding RLU [21]: 39600 RLU | Trimeric HA Binding RLU [22]: 11800 RLU | Trimeric HA Binding RLU [23]: 54400 RLU | Trimeric HA Binding RLU [24]: 48200 RLU | Trimeric HA Binding RLU [25]: 55400 RLU | Trimeric HA Binding RLU [26]: 17300 RLU | Trimeric HA Binding RLU [27]: 37500 RLU | Trimeric HA Binding RLU [28]: 3350 RLU | Trimeric HA Binding RLU [29]: 1050 RLU | Trimeric HA Binding RLU [30]: 11900 RLU | Trimeric HA Binding: RLU [31]: 302 RLU

B5: TCN-547 (5092_F11) (antibody, V domains shown)
VH: QVQLQESGPGLVKPSQTLSLTCTVSGDSISSVDHYWSWIRQHPVKGLEWIGFMYYSASTYYNPSLKSRVTISTDTSKNQFSLRLSSVTAADTAVYYCARGTCAGDCSLHYYYYGLDVWGQGRTVTVSS
VL: DIQMTQSPSSLSASVGDRVTITCRASQSISSYLNWYQHKPGKAPKVLMYAVSILQSGVPSRFSGSGSGADFTLTISSLQPEDFATYYCQQSYSSPLTFGGGTKVEIK
Trimeric HA Binding: RLU [32]: 1000 RLU | Trimeric HA Binding: RLU [9]: 198 RLU | Trimeric HA Binding: RLU [10]: 170 RLU | Trimeric HA Binding RLU [33]: 1080 RLU | Trimeric HA Binding RLU [34]: 1470 RLU | Trimeric HA Binding RLU [35]: 6970 RLU | Trimeric HA Binding RLU [36]: 1350 RLU
